Data reported in the nanobody polyreactivity screen of Harvey et al. (2022).

Assay: yeast display, Sf9 membrane polyspecificity reagent, FACS + sequencing; frameworks hold sequencing errors
Method in brief: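 Nanobodies from a synthetic yeast display library (Saccharomyces cerevisiae BJ5465), induced 36–48 hours with galactose, were stained 1 hour at 4 °C with 10% biotinylated, detergent-solubilized Sf9 membrane reagent, enriched on streptavidin microbeads, then FACS-sorted. Anti-HA (expression) and streptavidin (reagent binding) fluorescence set low and high (top ~1%) gates. Polyreactivity labels come from the gate of origin. Genes were colony-PCR amplified, MiSeq 2 × 250 sequenced and filtered by CDR length.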
In the case of “QVQLVESGGGLVQAGGSLRLSCAASGSTIRNYAMGWYRQAPGKERELVAAISSGGRTYYADSVKGRFTISRDNAKNTVYLQMNSLKPEDTAVYYCKGRSYSRMYYWGQGTQVTVSS”, the “polyreactivity (PSR sort gate)” value is reported as “high polyreactivity”. For “QVHLVESGGGIVQAGLSLRLSCAASGRTFVVNAMGWYRQAPGKERELVAAISYSGGRTYYADSVKGRFTISRDIAKNTVYLKMNSLKPEDTAVYYCAAQSRYGGKFYYWGQGTQVTVSS”, the “polyreactivity (PSR sort gate)” value was “high polyreactivity”. For “QVQLVESGGGLVQAGGSLRLSCAASGYILQINAMGWYRQAPGKERELVSAISISGGNTYYADSVKGRFTISRDNAKNNVYLQMNSLKPEDTAVYYCAAYRYYSYLVRYGLLLAYYYWGQGTQVTVSS”, the “polyreactivity (PSR sort gate)” value was “low polyreactivity”. With “QVQLVESGGGLVQAGGSLRLSCAASGRIFFTYAMGWSRQAPGKERELVAAISWSGGGTYYADSVKGRFTISRDNAKNTVYLQMNSLKPEDTAVYYCAADNTILFDYWGQGTQVTVSS” the “polyreactivity (PSR sort gate)” value was “low polyreactivity”. For “QDQLVESGGGLVQAGGSLRLSCAASGFTFGYYAMGWYRQAPGKERELVAAISSGSSTYYADSVKGRFTISRDNAKNTVDLQMISLTPEDTAVFYCAATGDNNTPSGYDYWGQGTQVTVSS”, the “polyreactivity (PSR sort gate)” value was “high polyreactivity”. For “QVQLVESGGGLVQAGGSLRLSCAASGGTFGSYAMGWYRQAPGKERELVAAITGSGGRTYYADSVKGRFTISRDNAKNTVYLQMNSLKPEDTAVYYCNATRGIGPPFYYWGQGTKVTVSS”, the “polyreactivity (PSR sort gate)” value was “high polyreactivity”. With “QVQLVESGGGLVQAGGSLRLSCAASGRTFYSYAMGWYRQAPGKERELVAAISRGGNTYYADSVKGRFTISRDNAKNTVSLQMNSLNPEDTAVYYCAVVRVTYYASIYHRGYDYWGQGTQVTVSS” the “polyreactivity (PSR sort gate)” value was “low polyreactivity”. In the case of “QVQLEESGGGLVQAGGSLRLSCAASGFTFIRYAMGWYRQAPGTERELVAAIRGTGTSTYYADSVKGRFTISRDNAKNTVYLQMNSLKPEDTAVYYCNKVAGRSPYTRYDYWGQGTQVTVSS”, the “polyreactivity (PSR sort gate)” value is reported as “low polyreactivity”. For “QVQLVESGGGLVQAGGSLSLSCAATGSIFLHNAMGWYRQAPGKERELVAVITSRGGSTYYADSVKGRFTISRDNAKNTVYLQMNSLKPEDTAVYYCAAPAYHKRTSRGDYWGQGTQVTVSS”, the “polyreactivity (PSR sort gate)” value was “low polyreactivity”. In the case of “QVQLVESGGGLVQAGGSLRLSCAASGSTSTYNAMGWYRQAPGTERELVAAITESGGSTYYADSVKGRFTISRDNAKNTVYLQMNSLKPEDTAVYYCAADQTYTYDYWGQGTQVTVSS”, the “polyreactivity (PSR sort gate)” value is reported as “low polyreactivity”. With “QVQLVESGGGLVQAGGSLRLSCAASGFIFKPYAMGWYRQAPGKERELVAAITYSGSSTYYADSVKGRFTISRDNAKNTVYLQMNSLKPEDTAVYYCAARDWSHPRRLFYWGQGTQVTVSS” the “polyreactivity (PSR sort gate)” value was “high polyreactivity”. With “QVQLVESGGGLVQAGGSLRLSCAASGSTFYNYAMGWYRQAPGKERELVAAITSSGGSTYYADSVKGRFTISRDNAKNTVYLQMNSLKPEDTAVYYCNADDGYGQVHSISTYEMDYWGQGTQVTVSS” the “polyreactivity (PSR sort gate)” value was “low polyreactivity”. For “QVQLEESAGGLVQAGGSLSLICAASGTIVSYAMGWYRQAPGKQRELVAAISRSGGSTYYADSVKGRFTIARDNEKNTVYLQMNSLKPEDTAVYYCAARWRYLTLYAGFNYWGQGTQVTVSS”, the “polyreactivity (PSR sort gate)” value was “high polyreactivity”. With “QVQLVESGGGLVQAGGSLRLSCAASGSTFLDYAMGWYRQAPGKDRELVAAISTDDSSTYYADSVKGRFTISRDNAKNTVYLQMNSLKPEDTAVYYCAADDRDWVNFDYWGQGTQVTVSS” the “polyreactivity (PSR sort gate)” value was “low polyreactivity”. In the case of “QVHLVESGGGLVQAGGSLRLSCAATGSTFPFYTMGWYRQAPGKERELVASISVKGDTTYYADSVKGRFTISRDNAKNTVYLQMNSLKPDDTAVYYCATGPYIWQEWSPGFEYWGQGTQVTVSS”, the “polyreactivity (PSR sort gate)” value is reported as “low polyreactivity”. With “QVQLVESGGGLVQAGGSLRLSCAASGRTFVTNAMGWSRQAPGKERELVAAISSGDRTYYADSVKGRFTISRDNAKNTVYLQMNSLKPEDTAVYYCAKVSRRGIVGYWGQGTQVTVSS” the “polyreactivity (PSR sort gate)” value was “high polyreactivity”. For “QVQLVESGGGLVQAGGSLRLSCAASGFTFRLNAMGWYRQAPGKERELVAAITRSGGNTYYADSVKGRFTISRDNAKNTVYLQMNSLKPEDTAVYYCAVRQLDRRSPKYNYWGQGTQVTVSS”, the “polyreactivity (PSR sort gate)” value was “high polyreactivity”. For “QVQLVESGGGLVQAGGSLRLSCAASGVIFFSYAMGWYRQAPGKERELVASISRSGGTTYYADSVKGRFTISRDNGKNTVYLQMNSLKPEDTAVYYCAARTYSYYSRDYCGQGTQVTVSS”, the “polyreactivity (PSR sort gate)” value was “high polyreactivity”. For “QFQLEESGGGLVQAGGSLRLSCAASGFIFTDNGMGRYRQATGKERELVAAINSDGSTYYADSVKGRFTISRDNAKNTVYLQMTSLIPEYTAVYYCAAGSFDRYFWYDYWGQGTQVTVSS”, the “polyreactivity (PSR sort gate)” value was “low polyreactivity”. In the case of “QVQLVESGGGLVQAGGSLRLSCAASGSIFTRNAMGWYRQAPGKERELVAAISRGGGTNYADSVKGRFTISRDNAKNTVYLQMNSLKPEDTAVYYCAKGWLPNGIPTYFRPYGLDYWGQGTQVTVSS”, the “polyreactivity (PSR sort gate)” value is reported as “high polyreactivity”. For “QVQLVESGGALVQAGGSLRLSCAASGRTLGGYAMGWYRQAPGKERELVAAITRRGGTTYYADSVKGRFTISRDNAKNTVYLQMNSLKPEDTAVYYCAKYTVQYAISHYDYWGQGTQVTVSS”, the “polyreactivity (PSR sort gate)” value was “high polyreactivity”. For “QVQLVESGGGLVQAGGSLRLSCAASVSIFYVYARGCYRQAPGKERELVAAITSSGTTNYADSVKGRFTISRDNAKNTVYLQMNSLKPEDTAVYYCAADPDSGQVPFDYWGQGTHVTVSS”, the “polyreactivity (PSR sort gate)” value was “low polyreactivity”. For “QVQLVESGGGLVQAGGSLRLSCAASGRTFYRYVMGWYRQATGKERELDADISRRGGRTYYADSVKGRFTISRDNAKNTVYLQMNSLKPEDTAVYYCAAESKYATSSPRRDYWGQGTQVTVSS”, the “polyreactivity (PSR sort gate)” value was “high polyreactivity”. With “QVQLVESGGGLVQAGGSLRLSCAASGFIFAPNAMGWYRQAPGKERELVAAISHSGASTFYADSVKGRFTISRDYAKNTVYLQMNSLKPEDTAVYYCGAPPYYSYDYWRQGTQVTVSS” the “polyreactivity (PSR sort gate)” value was “low polyreactivity”. With “QVQLVESGGGLVQAGGSLRLSCAASGFIFEYNTMGWYIQAPGKERELVAAISFIGGRTYYADSVKRRFTLSRDNAKNTVYLQMNSLKPVDTAVNYCNKRYGGYYSGARRVLYYYWGQGTQVTVSS” the “polyreactivity (PSR sort gate)” value was “high polyreactivity”. For “QVQLVESGGGLVQAGGSLRLSCAASGSTFRQNTMGWYRQAPGKEREFVAAINYSGGSTNYADSVKGRFTISRDNAKNTVYLQMNSLKPEDTAVYYCAVRQYYYKRMGYWGQGTQVTVSS”, the “polyreactivity (PSR sort gate)” value was “high polyreactivity”. For “QVQLVESGGGLVQAGGSLRLSCAASGRTFGVYAMGWYRQAPGKERELVATIRTTGSTNYADSVKGRFTISRDNAKYTVYLQMNSVKTEDTAVYYCAARLRQSKYYPYTTFTYDYWGQGTQVTVSS”, the “polyreactivity (PSR sort gate)” value was “high polyreactivity”. For “QVQLVESGGGLVQAGGSLRLSCAASGIIFSYYTMGWYRPAPGKERELVAAISARGGRTYYADSVKGRFTISRDNAKNTVYLQMNSLKPEDTAVYYCAASWSTEYYWGQGTQVTVSS”, the “polyreactivity (PSR sort gate)” value was “high polyreactivity”. For “QVQLVESGGGLVQAGGSLRLSCAASGFTFPPYAMGLYIQATGKETELVAAITVGGGRTYYADSVKARFTISRDNARNTVYLQMNWLKPVDTAVYYCDADSHASTYDYWGQGTQVTVSS”, the “polyreactivity (PSR sort gate)” value was “low polyreactivity”. With “QVQLVESGGGLVQAGGSLRVSCADSGNILYLYAMGWYREAPGKERELVAAISGNGGRTYYADSVKGRFTISRDNAKNTVYLQMNSLKPEDTAVYDCAADYAGRRFWYYHGLDSWGQGTQVTVSA” the “polyreactivity (PSR sort gate)” value was “high polyreactivity”.
